Reference: patent US20040265963

Biological target: T1, Tkip (tyrosine kinase inhibitor peptide), WLVFFVIFYFFR
T1 chain: WLVFFVIFYFFR

B1: Recombinant human JAK2 immobilized on agarose beads (protein)
chain: MGMACLTMTEMEGTSTSSIYQNGDISGNANSMKQIDPVLQVYLYHSLGKSEADYLTFPSGEYVAEEICIAASKACGITPVYHNMFALMSETERIWYPPNHVFHIDESTRHNVLYRIRFYFPRWYCSGSNRAYRHGISRGAEAPLLDDFVMSYLFAQWRHDFVHGWIKVPVTHETQEECLGMAVLDMMRIAKENDQTPLAIYNSISYKTFLPKCIRAKIQDYHILTRKRIRYRFRRFIQQFSQCKATARNLKLKYLINLETLQSAFYTEKFEVKEPGSGPSGEEIFATIIITGNGGIQWSRGKHKESETLTEQDLQLYCDFPNIIDVSIKQANQEGSNESRVVTIHKQDGKNLEIELSSLREALSFVSLIDGYYRLTADAHHYLCKEVAPPAVLENIQSNCHGPISMDFAISKLKKAGNQTGLYVLRCSPKDFNKYFLTFAVERENVIEYKHCLITKNENEEYNLSGTKKNFSSLKDLLNCYQMETVRSDNIIFQFTKCCPPKPKDKSNLLVFRTNGVSDVPTSPTLQRPTHMNQMVFHKIRNEDLIFNESLGQGTFTKIFKGVRREVGDYGQLHETEVLLKVLDKAHRNYSESFFEAASMMSKLSHKHLVLNYGVCVCGDENILVQEFVKFGSLDTYLKKNKNCINILWKLEVAKQLAWAMHFLEENTLIHGNVCAKNILLIREEDRKTGNPPFIKLSDPGISITVLPKDILQERIPWVPPECIENPKNLNLATDKWSFGTTLWEICSGGDKPLSALDSQRKLQFYEDRHQLPAPKWAELANLINNCMDYEPDFRPSFRAIIRDLNSLFTPDYELLTENDMLPNMRIGALGFSGAFEDRDPTQFEERHLKFLQQLGKGNFGSVEMCRYDPLQDNTGEVVAVKKLQHSTEEHLRDFEREIEILKSLQHDNIVKYKGVCYSAGRRNLKLIMEYLPYGSLRDYLQKHKERIDHIKLLQYTSQICKGMEYLGTKRYIHRDLATRNILVENENRVKIGDFGLTKVLPQDKEYYKVKEPGESPIFWYAPESLTESKFSVASDVWSFGVVLYELFTYIEKSKSPPAEFMRMIGNDKQGQMIVFHLIELLKNNGRLPRPDGCPDEIYMIMTECWNNNVNQRPSFRDLALRVDQIRDNMAG
- JAK2 autophosphorylation and JAK2 phosphorylation of IFNGR-1, in vitro kinase assay (32P autoradiography): Tkip at 50 µM inhibited both the autophosphorylation of JAK2 as well as JAK2 phosphorylation of IFNGR-1
